Measured values taken from doi:10.1101/2025.09.08.674988.

Key:
[1] = biological target: FlAsH-labeled NS5B(Δ21)-FlAsH-His (Hepatitis C virus genotype 2a); experiment: FRAP on a supported lipid bilayer
dynamic light scattering = details: other: dynamic light scattering
[2] = biological target: NS5B(Δ21)-FlAsH-His (Hepatitis C virus genotype 2a); experiment: dynamic light scattering
[3] = biological target: FlAsH-labeled NS5B(Δ21)-FlAsH-His (Hepatitis C virus genotype 2a); experiment: fluorescence polarisation
[4] = biological target: FlAsH-labeled NS5B(Δ21)-FlAsH-His (Hepatitis C virus genotype 2a); experiment: fluorescence polarisation; remark: listed apart in the source
[5] = biological target: FlAsH-labeled NS5B(Δ21)-FlAsH-His (Hepatitis C virus genotype 2a); experiment: fluorescence polarisation; remark: listed apart in the source

FlAsH-labeled NS5B(Δ21)-FlAsH-His (enzyme)
Kd [1]: < 10 nM

NS5B(Δ21)-FlAsH-His
K0.5 (dynamic light scattering): K0.5 ∼ 1.5 µM

NS5B(Δ21)-FlAsH-His (enzyme)
Kd [2]: 750 nM | Kd [3]: 1100 nM | Kd [4]: 1000 nM | Kd [5]: 560 nM
